Measured values: PMC8677947

How the values were obtained:
[1] = biological target: GCN4^WT (leucine zipper dimerization element of GCN4), C-terminal 6x His-tagged (yeast); assay: native gel or EMSA; native (nondenaturing) PAGE beside SDS-PAGE of GCN4^WT and GCN4^3mut
[2] = biological target: GCN4 leucine zipper (Saccharomyces cerevisiae) (UniProt P03069); conditions: cited from earlier work

Sequence of GCN4 leucine zipper (P03069 250-277): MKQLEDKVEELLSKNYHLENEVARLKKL
Sequence of GCN4^WT (leucine zipper dimerization element of GCN4), C-terminal 6x His-tagged (domain or fragment) (P03069 whole entry, the tested form may be a part): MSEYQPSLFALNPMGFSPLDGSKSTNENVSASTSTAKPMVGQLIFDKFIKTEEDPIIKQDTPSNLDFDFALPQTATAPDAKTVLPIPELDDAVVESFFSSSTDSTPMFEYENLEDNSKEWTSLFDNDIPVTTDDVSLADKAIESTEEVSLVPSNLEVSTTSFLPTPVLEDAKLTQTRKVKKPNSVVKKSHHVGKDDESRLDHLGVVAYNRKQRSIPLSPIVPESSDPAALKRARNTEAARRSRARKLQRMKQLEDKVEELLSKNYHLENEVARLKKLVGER

| stoichiometry N [1] | Substance | Kd [2] [nM] |
| --- | --- | --- |
| 2 | GCN4^WT (leucine zipper dimerization element of GCN4), C-terminal 6x His-tagged (domain or fragment) |  |
|  | GCN4 leucine zipper (from UniProt P03069) | 0.18 |
